Laboratory results: a protein production outcome set (Wang et al. 2014)

Assay: label from the status in PepcDB records
With “MKSIYYLSADDLFQMNTFLIQTYSPAEQIGIKDRNALEMASNQPAQFVFDVDLYPTIEEKAAILMINIATKHCFYNANKRTAVMATDLFLQLNGYDFQLDTQEGVDLLVFIATYRSDFDQLKNDVSKVIRAKLNHTSSHLEHHHHHH” the protein production was “not failed”. For “MKSLEEKTIAKEQIFSGKVIDLYVEDVELPNGKASKREIVKHPGAVAVLAVTDEGKIIMVKQFRKPLERTIVEIPAGKLEKGEEPEYTALRELEEETGYTAKKLTKITAFYTSPGFADEIVHVFLAEELSVLEEKRELDEDEFVEVMEVTLEDALKLVESREVYDAKTAYAIQYLQLKEALQAQK”, the protein production was “failed”. For “MKSLHRPDLYSWSTFNPARNIDFNGFAWIRPEGNILIDPVALSNHDWKHLESLGGVVWIVLTNSDHVRSAKEIADQTYTKIAGPVAEKENFPIYCDRWLSDGDELVPGLKVMELQGSKTPGELALLLEETTLITGDLVRAYRAGGLEILPDEKLMNKQKVVASVRRLAALEKVEAVLVGDGWSVFRDGRDRLKELVATLA”, the protein production was “not failed”. With “MKSLWSDADAAECVERLGLLGLPPELGLRTYSARLLGSNPKLVLHGGGNTSVKLNINDLFGNPVQVMCIKGSGQDLATITASGHPAVRLAPLQQLKVLDHLSDEDMVNILRTNLLDCRAPTPSVEALLHAFVDRPVIDHTHAVAAMVIADQPDGDRLCRYIYGERVLWIPYVMSGFALSLAVERAFRAYPDAEGMLLGKHGLCTFGESAKASYERMITFVTLAENFIESRRAIYSPPVITPPAKPNNLADMAHIAPYLRAAFARSSAISEKKHWIFDLRTDPKSLAFSSGLGTSDIAQRGVATPDHVIRMKGRPVVLDAPDLNNLGDWAAQTQTKIAAFVERYQHYFHRNNARFERGKIALDALPRAIVIPYLGVVGAGRTAEDAAINADIIESWLDVVTDATVCGDYEPIGEADEFDMEYWSLEQAKIDKASVKPLQGQIVVVTGAGGGIGAAIAKEFSLLGAELAVLDIDSESAKNVAAQLGPHALALQCDVTETASVQAAFETIATRFGGVDIVVSNAGVALSGAIAELPEATLRTSFEVNFFAHQRVAQQAVSIMKKQGIGGVLLFNISKQAINPGINFGAYGTSKAALLSLVRQYALEQGQDSIRVNAVNADRIRSGLLDDEMISLRARARGLSEEKYMAGNLLGQEVTAQDVAKAFVVSAMLDKSTGNVITVDGGNVAAMLR” the protein production was “failed”. For “MKSRIIVRTSFDAAHAVKVGDHWEDVHGHTFFLEVAIEGEIKNGYVMDFLELRKIVEEITKELDHRNLNNIFENPTTENIALWIGERIRDKLPPYVKLKRVVLWEGKDNGVELEW”, the protein production was “not failed”. In the case of “MKSRWIIGRSEYLDLAFHAWKQARQDETVIRIEVPQDSEHEFDLGVLDGLNPTDGAMFVAFDERFGNFKRVELMQAAMERGFKLESYIHSSAAIGTDVVIGLNTFVGAHAVVGHGCKIDYNTVIHAGAHLGTACRIKSSCWIENGVQIGAGVEIGGNSILRTGAIVRGGIKVGRSCELGWPRVYCEDVPAKTYFDARYHNPIHTFGT”, the protein production is reported as “failed”. In the case of “MKSTEKKELSHFRLKLETYLNEHFPEMSGNNPFITARSDEALTAYCDAVAQGFSHPEAESMASEVLYQGLHFSRYDTLVSVLEREFEQELPSPLPERLAPILLKNKAIQSVFAKYDLTDDFEASPEYEHLYTELTGTIVLLIESNHLPTIGGGNDTV”, the protein production is reported as “not failed”. In the case of “MKSTFSVLFFVKKDKQKINGSYPIFVRITIDGVASRFNSKLDVQPKLWDGKAGKAAGRSAEATRINRLLDDINASLNTIYHELQRRDNYVTAEKVKNEFLGHSENHDTILNLFQKHNDDVKQLVGISKTIATYRKYEVTRRHLAEFIQSKYNLSDISIKEITPMFITDFELYLRTTCKCGYNTTAKFMQFFKRIILIARNNGILIGDPFANYKIRLEKVDRGYLTEDEIKIILKKKMVSERLEQVRDVFIFSCFSGLAYVDVANLKEDNIRKSFDGNLWIITKRQKTNTDVNVPLLDIPKMILEKYKGKLPNGKVLPIISNQK”, the protein production is reported as “not failed”. In the case of “MKSVKTLLTRPFNWVVLTFCIIFVGLFIFTFFNAKFYDTPIGQITQINNTQSTQVSDEHHNKDTKHKETLHIHILNGKFEGKTTTITHEYTESQADSEAFSKNDKVLLHVDKNLTTAYITEKKRDSLVVAITGIFLLTVLLVGKKIGLQSILSLALNTCIVLLAIYIHNQSPNISLFGLMSIAIFISTTLTLVLVTGWQWRTLITIISTLLGTFLCVGITQCIIQITDGSGLKFETMSFLTLPPKEVFLASVMIGSLGAVMDVAITIASGMAEILRRTPDISMRRWALAGCNIGQDIMGTMTNILLFSYLSGSLPMLLIYLKNANTITYTISMNWSLEISRAITGGIGIVLTIPITILLMQVWFKLRGVKS”, the protein production is reported as “failed”.
